# Reference: patent US20250312467A1
# Target: Her2 (UniProt P04626)
# Assay: cell-based or functional assay
substance,measurement,value
"antibody-payload conjugate (ADC, trastuzumab-DM1 conjugate)","IC50, in vitro cytotoxicity on BT474 cells",0.0296 µg/mL
same,"IC50, in vitro cytotoxicity on NCI-N87 cells",0.0821 µg/mL
